This is an account of results in patent publication US20160009772A1, “CELL PENETRATING PEPTIDES WHICH BIND IRF5” (priority 2012, published 2016).

The test concerns the target Wild type IRF5 (222-467) (human) (UniProt Q13568). Description: TR-FRET.

Chain of Wild type IRF5 (222-467) (Q13568 232-477): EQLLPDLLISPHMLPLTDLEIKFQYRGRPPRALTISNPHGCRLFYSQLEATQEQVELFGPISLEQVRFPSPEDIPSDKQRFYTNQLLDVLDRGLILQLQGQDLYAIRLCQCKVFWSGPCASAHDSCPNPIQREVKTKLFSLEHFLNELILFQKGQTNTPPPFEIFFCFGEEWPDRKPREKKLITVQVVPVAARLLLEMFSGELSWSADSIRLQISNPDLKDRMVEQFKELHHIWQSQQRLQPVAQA

Take “IRF5(222-467, S430D), S430D phosphomimetic construct of IRF5 (222-467) (from UniProt Q13568 222-467)”: the Kd stood at 1580 nM. Substance “Wild type IRF5 (222-467) (from UniProt Q13568 232-477)” returned a Kd of 4210 nM.
